Laboratory results published in doi:10.1101/329482 (bioRxiv, 2018).

Biological target: GP1 receptor-binding domain of Lujo virus (LUJVGP1), residues 74-199 (Lujo virus (LUJV), UniProt C5ILC1 74-199)
Assay: crystal structure

B1: first CUB domain of neuropilin-2 (NRP2), binding site fragment (domain or fragment)
chain: PCGGRLNSKDAGYITSPGYPQDYPSHQNCEWIVYAPEPNQKIVLNFNPHFEIEKHDCKYDFIEIRDGDSESADLLGKHCGNIAPPTIISSGSMLYIKFTSDYARQGAGFSLRYEIFKTGS
B1: binds.
